Measured values as given in the supplement of paper PMC11316812.
± gives the standard deviation of the averaged measurements.

How the values were obtained:
[1] = tested on: MCF7; assay: percentage of EdU-negative (G0-arrested) nuclei per well, 72 h; higher = more G0 arrest; details: reference: sequence is the full UniProt precursor, the tested protein was the secreted form or ectodomain
[2] = tested on: hTERT-HMEC; assay: as above; details: reference: sequence is the full UniProt precursor, the tested protein was the secreted form or ectodomain
[3] = protein concentration 0.0225 µM
[4] = protein concentration 0.0257143 µM
[5] = protein concentration 0.257143 µM
[6] = protein concentration 0.03125 µM
[7] = protein concentration 0.3125 µM
[8] = protein concentration 0.02175 µM
[9] = protein concentration 0.2175 µM
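Also: secreted proteins added to cultured cells, EdU pulse at the end, nuclei found by Hoechst imaging, EdU status from nuclear versus surrounding ring intensity ratio, PBS as neutral control.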

Sequence | percentage of EdU-negative [1, 3] [%] | percentage of EdU-negative ([1]; protein concentration 0.225 µM) [%] | percentage of EdU-negative [2, 3] [%] | percentage of EdU-negative ([2]; protein concentration 0.225 µM) [%] | percentage of EdU-negative [1, 6] [%] | percentage of EdU-negative [1, 7] [%] | percentage of EdU-negative [2, 6] [%] | percentage of EdU-negative [2, 7] [%] | further results
MALRRLGAALLLLPLLAAVEETLMDSTTATAELGWMVHPPSGWEEVSGYDENMNTIRTYQVCNVFESSQNNWLRTKFIRRRGAHRIHVEMKFSVRDCSSIPSVPGSCKETFNLYYYEADFDSATKTFPNWMENPWVKVDTIAADESFSQVDLGGRVMKINTEVRSFGPVSRSGFYLAFQDYGGCMSLIAVRVFYRKCPRIIQNGAIFQETLSGAESTSLVAARGSCIANAEEVDVPIKLYCNGDGEWLVPIGRCMCKAGFEAVENGTVCRGCPSGTFKANQGDEACTHCPINSRTTSEGATNCVCRNGYYRADLDPLDMPCTTIPSAPQAVISSVNETSLMLEWTPPRDSGGREDLVYNIICKSCGSGRGACTRCGDNVQYAPRQLGLTEPRIYISDLLAHTQYTFEIQAVNGVTDQSPFSPQFASVNITTNQAAPSAVSIMHQVSRTVDSITLSWSQPDQPNGVILDYELQYYEKELSEYNATAIKSPTNTVTVQGLKAGAIYVFQVRARTVAGYGRYSGKMYFQTMTEAEYQTSIQEKLPLIIGSSAAGLVFLIAVVVIAIVCNRRGFERADSEYTDKLQHYTSGHMTPGMKIYIDPFTYEDPNEAVREFAKEIDISCVKIEQVIGAGEFGEVCSGHLKLPGKREIFVAIKTLKSGYTEKQRRDFLSEASIMGQFDHPNVIHLEGVVTKSTPVMIITEFMENGSLDSFLRQNDGQFTVIQLVGMLRGIAAGMKYLADMNYVHRDLAARNILVNSNLVCKVSDFGLSRFLEDDTSDPTYTSALGGKIPIRWTAPEAIQYRKFTSASDVWSYGIVMWEVMSYGERPYWDMTNQDVINAIEQDYRLPPPMDCPSALHQLMLDCWQKDRNHRPKFGQIVNTLDKMIRNPNSLKAMAPLSSGINLPLLDRTIPDYTSFNTVDEWLEAIKMGQYKESFANAGFTSFDVVSQMMMEDILRVGVTLAGHQKKILNSIQVMRAQMNQIQSVEGQPLARRPRATGRTKRCQPRDVTKKTCNSNDGKKKGMGKKKTDPGRGREIQGIFFKEDSHKESNDCSCGG [Q6NVW1] | 25.8 ± 2.3 | 26.5 ± 1 | 5.5 ± 0.22 | 8.19 ± 1 | – | – | – | – | –
MALRRPPRLRLCARLPDFFLLLLFRGCLIGAVNLKSSNRTPVVQEFESVELSCIITDSQTSDPRIEWKKIQDEQTTYVFFDNKIQGDLAGRAEILGKTSLKIWNVTRRDSALYRCEVVARNDRKEIDEIVIELTVQVKPVTPVCRVPKAVPVGKMATLHCQESEGHPRPHYSWYRNDVPLPTDSRANPRFRNSSFHLNSETGTLVFTAVHKDDSGQYYCIASNDAGSARCEEQEMEVYDLNIGGIIGGVLVVLAVLALITLGICCAYRRGYFINNKQDGESYKNPGKPDGVNYIRTDEEGDFRHKSSFVI [Q9BX67] | 21.3 ± 0.85 | 24.5 ± 2.1 | 4.86 ± 0.27 | 5.13 ± 0.74 | – | – | – | – | –
MALRRSMGRPGLPPLPLPPPPRLGLLLAALASLLLPESAAAGLKLMGAPVKLTVSQGQPVKLNCSVEGMEEPDIQWVKDGAVVQNLDQLYIPVSEQHWIGFLSLKSVERSDAGRYWCQVEDGGETEISQPVWLTVEGVPFFTVEPKDLAVPPNAPFQLSCEAVGPPEPVTIVWWRGTTKIGGPAPSPSVLNVTGVTQSTMFSCEAHNLKGLASSRTATVHLQALPAAPFNITVTKLSSSNASVAWMPGADGRALLQSCTVQVTQAPGGWEVLAVVVPVPPFTCLLRDLVPATNYSLRVRCANALGPSPYADWVPFQTKGLAPASAPQNLHAIRTDSGLILEWEEVIPEAPLEGPLGPYKLSWVQDNGTQDELTVEGTRANLTGWDPQKDLIVRVCVSNAVGCGPWSQPLVVSSHDRAGQQGPPHSRTSWVPVVLGVLTALVTAAALALILLRKRRKETRFGQAFDSVMARGEPAVHFRAARSFNRERPERIEATLDSLGISDELKEKLEDVLIPEQQFTLGRMLGKGEFGSVREAQLKQEDGSFVKVAVKMLKADIIASSDIEEFLREAACMKEFDHPHVAKLVGVSLRSRAKGRLPIPMVILPFMKHGDLHAFLLASRIGENPFNLPLQTLIRFMVDIACGMEYLSSRNFIHRDLAARNCMLAEDMTVCVADFGLSRKIYSGDYYRQGCASKLPVKWLALESLADNLYTVQSDVWAFGVTMWEIMTRGQTPYAGIENAEIYNYLIGGNRLKQPPECMEDVYDLMYQCWSADPKQRPSFTCLRMELENILGQLSVLSASQDPLYINIERAEEPTAGGSLELPGRDQPYSGAGDGSGMGAVGGTPSDCRYILTPGGLAEQPGQAEHQPESPLNETQRLLLLQQGLLPHSSC | – | – | – | – | – | – | – | – | percentage of EdU-negative [1, 4]: 25.83 ± 0.093%; percentage of EdU-negative [1, 5]: 27.3 ± 1.4%; percentage of EdU-negative [2, 4]: 3.99 ± 0.11%; percentage of EdU-negative [2, 5]: 5.87 ± 0.091%
MALRVVRSVRALLCTLRAVPSPAAPCPPRPWQLGVGAVRTLRTGPALLSVRKFTEKHEWVTTENGIGTVGISNFAQEALGDVVYCSLPEVGTKLNKQDEFGALESVKAASELYSPLSGEVTEINEALAENPGLVNKSCYEDGWLIKMTLSNPSELDELMSEEAYEKYIKSIEE | 25.5 ± 2.2 | 26.3 ± 3.4 | 4.5 ± 0.0069 | 10.4 ± 2.3 | – | – | – | – | –
MALSFSLLMAVLVLSYKSICSLGCDLPQTHSLGNRRALILLAQMGRISHFSCLKDRHDFGFPEEEFDGHQFQKAQAISVLHEMIQQTFNLFSTEDSSAAWEQSLLEKFSTELYQQLNDLEACVIQEVGVEETPLMNEDSILAVRKYFQRITLYLTEKKYSPCAWEVVRAEIMRSLSFSTNLQKRLRRKD | – | – | – | – | 40.1 ± 1.1 | 46.8 ± 1.5 | 9.16 ± 2.3 | 13.8 ± 2.7 | –
MALSFSLLMAVLVLSYKSICSLGCDLPQTHSLGNRRALILLAQMGRISHFSCLKDRYDFGFPQEVFDGNQFQKAQAISAFHEMIQQTFNLFSTKDSSAAWDETLLDKFYIELFQQLNDLEACVTQEVGVEEIALMNEDSILAVRKYFQRITLYLMGKKYSPCAWEVVRAEIMRSFSFSTNLQKGLRRKD | – | – | – | – | 47.8 ± 1.4 | 49.2 ± 3.4 | 11.7 ± 1.5 | 18.9 ± 0.54 | –
MALSFSLLMAVLVLSYKSICSLGCDLPQTHSLGNRRALILLAQMGRISPFSCLKDRHDFGFPQEEFDGNQFQKAQAISVLHEMIQQTFNLFSTKDSSATWEQSLLEKFSTELNQQLNDLEACVIQEVGVEETPLMNVDSILAVKKYFQRITLYLTEKKYSPCAWEVVRAEIMRSFSLSKIFQERLRRKE | – | – | – | – | 46.7 ± 0.98 | 47.89 ± 0.27 | 15.2 ± 2.2 | 17.64 ± 0.089 | –
MALSWVLTVLSLLPLLEAQIPLCANLVPVPITNATLDRITGKWFYIASAFRNEEYNKSVQEIQATFFYFTPNKTEDTIFLREYQTRQNQCFYNSSYLNVQRENGTVSRYEGGREHVAHLLFLRDTKTLMFGSYLDDEKNWGLSFYADKPETTKEQLGEFYEALDCLCIPRSDVMYTDWKKDKCEPLEKQHEKERKQEEGES | 25.4 ± 2.9 | 25.1 ± 3.5 | 4.9 ± 0.092 | 5.06 ± 0.15 | – | – | – | – | –
MALTAHPSCLLALLVAGLAQGIRGPLRAQDLGPQPLELKEAFKLFQIQFNRSYLSPEEHAHRLDIFAHNLAQAQRLQEEDLGTAEFGVTPFSDLTEEEFGQLYGYRRAAGGVPSMGREIRSEEPEESVPFSCDWRKVASAISPIKDQKNCNCCWAMAAAGNIETLWRISFWDFVDVSVQELLDCGRCGDGCHGGFVWDAFITVLNNSGLASEKDYPFQGKVRAHRCHPKKYQKVAWIQDFIMLQNNEHRIAQYLATYGPITVTINMKPLQLYRKGVIKATPTTCDPQLVDHSVLLVGFGSVKSEEGIWAETVSSQSQPQPPHPTPYWILKNSWGAQWGEKGYFRLHRGSNTCGITKFPLTARVQKPDMKPRVSCPP | 23.2 ± 3.5 | 32.1 ± 4.7 | 4.63 ± 1.3 | 48.2 ± 4 | – | – | – | – | –
MALTGYSWLLLSATFLNVGAEISITLEPAQPSEGDNVTLVVHGLSGELLAYSWYAGPTLSVSYLVASYIVSTGDETPGPAHTGREAVRPDGSLDIQGILPRHSGTYILQTFNRQLQTEVGYGHVQVHEILAQPTVLANSTALVERRDTLRLMCSSPSPTAEVRWFFNGGALPVALRLGLSPDGRVLARHGIRREEAGAYQCEVWNPVSVSRSEPINLTVYFGPERVAILQDSTTRTGCTIKVDFNTSLTLWCVSRSCPEPEYVWTFNGQALKNGQDHLNISSMTAAQEGTYTCIAKNTKTLLSGSASVVVKLSAAAVATMIVPVPTKPTEGQDVTLTVQGYPKDLLVYAWYRGPASEPNRLLSQLPSGTWIAGPAHTGREVGFPNCSLLVQKLNLTDTGRYTLKTVTVQGKTETLEVELQVAPLG [Q2WEN9] | – | – | – | – | – | – | – | – | percentage of EdU-negative [1, 8]: 26.4 ± 2%; percentage of EdU-negative [1, 9]: 27.5 ± 2.3%; percentage of EdU-negative [2, 8]: 5.23 ± 0.14%; percentage of EdU-negative [2, 9]: 7.63 ± 2.6%
